From publication PMC11675717, “Evolutionary Adaptations in Biliverdin Reductase B: Insights into Coenzyme Dynamics and Catalytic Efficiency” (International Journal of Molecular Sciences, 2024)

Substrate: Cc1cc2nc3c(=O)[nH]c(=O)nc-3n(C[C@H](O)[C@H](O)[C@H](O)COP(=O)(O)OP(=O)(O)OC[C@H]3O[C@@H](n4cnc5c(N)ncnc54)[C@H](O)[C@@H]3O)c2cc1C
Assay: purified protein
Type: biochemical, Homo sapiens
Details: co-substrate NADPH 400 µM; enzyme 20 µM

Protein	Km	kcat
human BLVRB (Homo sapiens) (protein, pET21) AVKKIAIFGATGQTGLTTLAQAVQAGYEVTVLVRDSSRLPSEGPRPAHVVVGDVLQAADVDKTVAGQDAVIVLLGTRNDLSPTTVMSEGARNIVAAMKAHGVDKVVACTSAFLLWDPTKVPPRLQAVTDDHIRMHKVLRESGLKYVAVMPPHIGDQPLTGAYTVTLDGRGPSRVISKHDLGHFMLRCLTTDEYDGHSTYPSHQYQ	242 ± 36 µM	0.16 ± 0.03 s⁻¹
human BLVRB (Homo sapiens; T164S) (protein, pET21) AVKKIAIFGATGQTGLTTLAQAVQAGYEVTVLVRDSSRLPSEGPRPAHVVVGDVLQAADVDKTVAGQDAVIVLLGTRNDLSPTTVMSEGARNIVAAMKAHGVDKVVACTSAFLLWDPTKVPPRLQAVTDDHIRMHKVLRESGLKYVAVMPPHIGDQPLTGAYSVTLDGRGPSRVISKHDLGHFMLRCLTTDEYDGHSTYPSHQYQ	171 ± 33 µM	0.1 ± 0.03 s⁻¹
